Assay results taken from patent US20240317858A1 (Adimab, published 2024).

Tests used:
[1] = molecular target: T1, Cynomolgus CD3 on HSC-F cells (cynomolgus, UniProt Q95LI5 22-198); experiment: flow cytometry, 100 nM IgG1, pH 7.4
T1 construct: whole, on cells; Target is the endogenous CD3 complex on cells; also called Cyno CD3 HSC-F cells; Cyno CD3+ HSC-F cells
Experimental: (§1) Cell binding assays. CD3+ human Jurkat cells (ATCC) and CHO-S cells (Invitrogen/ThermoFisher) were thawed and washed with cold PBSF buffer, pH 7.4 (PBS+0.1% BSA, pH 7.4). About 200,000 cells were aliquoted per well of a 96-well plate (FACS Assay Plate VWR BD 353263) and pelleted by centrifugation (5 minutes at 500×g). The cells were washed with either PBSF pH 7.4 or PBSF pH 6.0 (PBS+0.1% BSA, pH 6.0), and then resuspended in 100 μl in either PBSF pH 7.4 or PBSF pH 6.0 with IgG1 antibody (100 nM) produced in yeast as described above or in CHO cells. The mixture (cells+antibody) was incubated for 20 minutes on ice, then washed twice with either PBSF pH 7.4 or PBSF pH 6.0. Cells were resuspended in 50 μl of propidium iodide (Roche; 1:500 dilution) and anti-human IgG-RPE (Southern Biotech; 1:100 dilution) prepared in either PBSF pH 7.4 or PBSF pH 6.0, then incubated for 20 minutes on ice in the dark before cells were washed twice with either PBSF pH 7.4 or PBSF pH 6.0. Binding was analyzed on FACS Canto II.
(§2) Anti-CD3 antibodies A001-A005, V002, V004, V007, V009, V010, V013, and V014-V019 were produced as IgG1s in CHO cells, and binding to human CD3+ Jurkat cells and cynomolgus CD3+ HSC-F cells at pH 7.4 was analyzed by flow cytometry as described in Example 2. NCB (Normalized Cell Binding) values were calculated based on control and sample MFI values as NCB={(Sample MFI)−(Secondary only MFI)}/(Secondary only MFI).

[2] = molecular target: T2, Human CD3 on CD3+ Jurkat cells (human, UniProt P07766 23-207); experiment: flow cytometry, 100 nM IgG1, pH 7.4
T2 construct: whole, on cells; Target is the endogenous CD3 complex on cells; also called Human CD3+ Jurkat cells
Experimental: as §1, §2

T2 sequence (P07766 23-207): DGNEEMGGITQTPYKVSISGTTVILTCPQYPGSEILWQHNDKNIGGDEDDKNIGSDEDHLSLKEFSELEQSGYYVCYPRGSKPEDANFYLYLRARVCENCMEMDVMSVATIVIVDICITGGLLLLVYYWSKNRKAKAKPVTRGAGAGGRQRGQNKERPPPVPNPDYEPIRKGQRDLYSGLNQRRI
T1 sequence (Q95LI5 22-198): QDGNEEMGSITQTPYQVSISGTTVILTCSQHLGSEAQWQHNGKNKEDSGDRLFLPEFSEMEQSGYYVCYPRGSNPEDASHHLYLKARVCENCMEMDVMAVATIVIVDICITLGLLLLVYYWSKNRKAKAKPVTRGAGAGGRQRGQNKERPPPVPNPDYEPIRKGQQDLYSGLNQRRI

Binder | NCB (Normalized Cell Binding) [1] | NCB (Normalized Cell Binding) [2]
Antibody No. A003 (ADI-26913) IgG1 (antibody, V domains shown, IgG1, CHO-produced) VH: QVQLVQSGAEVKKPGASVKVSCKASGFNIKDYYMHWVRQAPGQRLEWMGWIDLENANTIYDAKFQGRVTITRDTSASTAYMELSSLRSEDTAVYYCARDQYGRYFYDVWGQGTLVTVSS VL: DIVMTQSPDSLAVSLGERATINCKSSQSLLNARTGKNYLAWYQQKPGQPPKLLIYWASTRESGVPDRFSGSGSGTDFTLTISSLQAEDVAVYYCKQSYSRRTFGGGTKVEIK | 367 | 209
Antibody No. V015 (ADI-76358) IgG1 (antibody, V domains shown, IgG1, CHO-produced) VH: QVQLVQSGAEVKKPGASVKVSCKASGFNIKDYYMHWVRQAPGQRLEWMGWIDLENADTIYDAKFQGRVTITRDTSASTAYMELSSLRSEDTAVYYCARDQYGRYFYDVWGQGTLVTVSS VL: DIVMTQSPDSLAVSLGERATINCKSSQSLLNARTGKNYLAWYQQKPGQPPKLLIYWASTRESGVPDRFSGSGSGTDFTLTISSLQAEDVAVYYCKQSYSRRTFGGGTKVEIK | 369 | 334
Antibody No. A005 (ADI-26921) IgG1 (antibody, V domains shown, IgG1, CHO-produced) VH: QVQLVQSGAEVKKPGASVKVSCKASGFNIKDYYMHWVRQAPGQRLEWMGWIDLEEGNTIYDAKFQGRVTITRDTSASTAYMELSSLRSEDTAVYYCARDAYGRYFYDVWGQGTLVTVSS VL: DIVMTQSPDSLAVSLGERATINCKSSQSLLNARTGKNYLAWYQQKPGQPPKLLIYWASTRESGVPDRFSGSGSGTDFTLTISSLQAEDVAVYYCKQSYSLRTFGGGTKVEIK | 364 | 206
Antibody No. V014 (ADI-76357) IgG1 (antibody, V domains shown, IgG1, CHO-produced) VH: QVQLVQSGAEVKKPGASVKVSCKASGFDIKDYYMHWVRQAPGQRLEWMGWIDLENANTIYDAKFQGRVTITRDTSASTAYMELSSLRSEDTAVYYCARDQYGRYFYDVWGQGTLVTVSS VL: DIVMTQSPDSLAVSLGERATINCKSSQSLLNARTGKNYLAWYQQKPGQPPKLLIYWASTRESGVPDRFSGSGSGTDFTLTISSLQAEDVAVYYCKQSYSRRTFGGGTKVEIK | 377 | 349
Antibody No. A004 (ADI-26920) IgG1 (antibody, V domains shown, IgG1, CHO-produced) VH: QVQLVQSGAEVKKPGASVKVSCKASGFNIKDYYMHWVRQAPGQRLEWMGWIDLENANTIYDAKFQGRVTITRDTSASTAYMELSSLRSEDTAVYYCGRDAYGRYFYDVWGQGTLVTVSS VL: DIVMTQSPDSLAVSLGERATINCKSSQSLLNARTGKNYLAWYQQKPGQPPKLLIYWASTRESGVPDRFSGSGSGTDFTLTISSLQAEDVAVYYCKQSYSLRTFGGGTKVEIK | 348 | 240

Other lines, results leading:

NCB (Normalized Cell Binding) [1] | NCB (Normalized Cell Binding) [2] | Binder
378 | 223 | Antibody No. V018 (ADI-76361) IgG1 (antibody, V domains shown, IgG1, CHO-produced) VH: QVQLVQSGAEVKKPGASVKVSCKASGFDIKDYYMHWVRQAPGQRLEWMGWIDLEEGNTIYDAKFQGRVTITRDTSASTAYMELSSLRSEDTAVYYCARDAYGRYFYDVWGQGTLVTVSS VL: DIVMTQSPDSLAVSLGERATINCKSSQSLLNARTGKNYLAWYQQKPGQPPKLLIYWASTRESGVPDRFSGSGSGTDFTLTISSLQAEDVAVYYCKQSYSLRTFGGGTKVEIK
376 | 325 | Antibody No. V017 (ADI-76360) IgG1 (antibody, V domains shown, IgG1, CHO-produced) VH: QVQLVQSGAEVKKPGASVKVSCKASGFNIKDYYMHWVRQAPGQRLEWMGWIDLENADTIYDAKFQGRVTITRDTSASTAYMELSSLRSEDTAVYYCGRDAYGRYFYDVWGQGTLVTVSS VL: DIVMTQSPDSLAVSLGERATINCKSSQSLLNARTGKNYLAWYQQKPGQPPKLLIYWASTRESGVPDRFSGSGSGTDFTLTISSLQAEDVAVYYCKQSYSLRTFGGGTKVEIK
374 | 314 | Antibody No. V016 (ADI-76359) IgG1 (antibody, V domains shown, IgG1, CHO-produced) VH: QVQLVQSGAEVKKPGASVKVSCKASGFDIKDYYMHWVRQAPGQRLEWMGWIDLENANTIYDAKFQGRVTITRDTSASTAYMELSSLRSEDTAVYYCGRDAYGRYFYDVWGQGTLVTVSS VL: DIVMTQSPDSLAVSLGERATINCKSSQSLLNARTGKNYLAWYQQKPGQPPKLLIYWASTRESGVPDRFSGSGSGTDFTLTISSLQAEDVAVYYCKQSYSLRTFGGGTKVEIK
